For one experiment, the target named is T1, P4bHq.
T1 chain: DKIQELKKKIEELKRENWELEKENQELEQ
Nature of the experiment: two-hybrid library CCNG1.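 Further: natural log of median RNA to DNA barcode read ratio; higher means stronger binding.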

A further experiment deals with T2, P5bHq.
T2 chain: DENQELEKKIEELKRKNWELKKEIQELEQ
Nature of the experiment: two-hybrid library CCNG1.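 Further: natural log of median RNA to DNA barcode read ratio; higher means stronger binding.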

The target of the next experiment is T3, P6bHq.
T3 chain: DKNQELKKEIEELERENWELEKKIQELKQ
Nature of the experiment: two-hybrid library CCNG1.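 Further: natural log of median RNA to DNA barcode read ratio; higher means stronger binding.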

The next experiment concerns the target T4, P7bHq.
T4 chain: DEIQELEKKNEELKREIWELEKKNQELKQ
The experiment in a line: two-hybrid library CCNG1.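 Further: natural log of median RNA to DNA barcode read ratio; higher means stronger binding.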

For a further experiment, the target named is T5, P8bHq.
T5 chain: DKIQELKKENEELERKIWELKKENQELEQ
Nature of the experiment: two-hybrid library CCNG1.

The target in a further experiment is T6, P9bHq.
T6 chain: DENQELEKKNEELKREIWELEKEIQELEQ
The experiment in a line: two-hybrid library CCNG1.

The target of a further experiment is T7, 4H3330-AA.
T7 chain: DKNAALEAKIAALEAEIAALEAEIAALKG
Nature of the experiment: two-hybrid library CCmax.

The target in a further experiment is T8, 4H716-AA.
T8 chain: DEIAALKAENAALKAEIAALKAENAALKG
The experiment in a line: two-hybrid library CCmax. The following applies: mean of both orientations.

For the next experiment, the target named is T9, 4H733-AA.
T9 chain: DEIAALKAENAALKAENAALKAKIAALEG
Nature of the experiment: two-hybrid library CCmax. The following applies: mean of both orientations.

The target in a further experiment is T10, 4H807-AA.
T10 chain: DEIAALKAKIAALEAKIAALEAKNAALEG
Nature of the experiment: two-hybrid library CCmax. The following applies: mean of both orientations.

A further experiment concerns the target T11, APC1015-AA.
T11 chain: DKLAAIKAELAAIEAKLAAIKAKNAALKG
Nature of the experiment: two-hybrid library CCmax. The following applies: mean of both orientations.

In another experiment the target is T12, APC1434-AA.
T12 chain: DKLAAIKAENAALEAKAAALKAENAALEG
Nature of the experiment: two-hybrid library CCmax. Conditions: mean of both orientations.

A further experiment concerns the target T13, APC2237-AA.
T13 chain: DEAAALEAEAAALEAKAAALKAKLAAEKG
The experiment in a line: two-hybrid library CCmax. The following applies: mean of both orientations.

The target in another experiment is T14, APC232-AA.
T14 chain: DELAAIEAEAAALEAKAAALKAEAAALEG
Nature of the experiment: two-hybrid library CCmax. Conditions: mean of both orientations.

For another experiment, the target named is T15, APC2405-AA.
T15 chain: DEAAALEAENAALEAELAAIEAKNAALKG
Nature of the experiment: two-hybrid library CCmax. The following applies: mean of both orientations.

The target in the next experiment is T16, APC3645-AA.
T16 chain: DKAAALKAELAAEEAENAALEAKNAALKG
Nature of the experiment: two-hybrid library CCmax. Conditions: mean of both orientations.

The target of the next experiment is T17, APC4011-AA.
T17 chain: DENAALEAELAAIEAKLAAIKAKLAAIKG
Nature of the experiment: two-hybrid library CCmax. Conditions: mean of both orientations.

The target of the next experiment is T18, APC4264-AA.
T18 chain: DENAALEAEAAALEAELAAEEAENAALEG
Nature of the experiment: two-hybrid library CCmax. The following applies: mean of both orientations.

The next experiment has as its target T19, APC4436-AA.
T19 chain: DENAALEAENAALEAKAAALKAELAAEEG
Nature of the experiment: two-hybrid library CCmax. Conditions: mean of both orientations.

A further experiment addresses T20, APC5383-AA.
T20 chain: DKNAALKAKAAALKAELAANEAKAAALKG
The experiment in a line: two-hybrid library CCmax. The following applies: mean of both orientations.

The target in a further experiment is T21, APC6108-AA.
T21 chain: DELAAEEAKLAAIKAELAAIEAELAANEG
Nature of the experiment: two-hybrid library CCmax. The following applies: mean of both orientations.

For the next experiment, the target named is T22, APC7099-AA.
T22 chain: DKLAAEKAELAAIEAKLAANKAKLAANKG
The experiment in a line: two-hybrid library CCmax. Conditions: mean of both orientations.

For another experiment, the target named is T23, APC8191-AA.
T23 chain: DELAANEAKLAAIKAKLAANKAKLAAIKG
The experiment in a line: two-hybrid library CCmax. Conditions: mean of both orientations.

In the next experiment the target is T24, APC8910-AA.
T24 chain: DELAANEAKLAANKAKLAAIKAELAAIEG
The experiment in a line: two-hybrid library CCmax.

A further experiment concerns the target T25, APC9096-AA.
T25 chain: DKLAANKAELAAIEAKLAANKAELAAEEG
Nature of the experiment: two-hybrid library CCmax. Conditions: mean of both orientations.

A further experiment concerns the target T26, APC9319-AA.
T26 chain: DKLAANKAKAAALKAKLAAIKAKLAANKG
The experiment in a line: two-hybrid library CCmax. Conditions: mean of both orientations.

A further experiment concerns the target T27, 4H1710-bN.
T27 chain: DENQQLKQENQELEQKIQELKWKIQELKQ
Nature of the experiment: two-hybrid library CCNG1.

The target of the next experiment is T28, 4H1804-bN.
T28 chain: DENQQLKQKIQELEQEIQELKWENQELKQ
Nature of the experiment: two-hybrid library CCNG1.

The target of another experiment is T29, 4H1899-bN.
T29 chain: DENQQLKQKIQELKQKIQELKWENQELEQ
Nature of the experiment: two-hybrid library CCNG1.

The target of a further experiment is T30, 4H1985-bN.
T30 chain: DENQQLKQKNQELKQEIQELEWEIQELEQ
Nature of the experiment: two-hybrid library CCNG1.

The target in a further experiment is T31, 4H235-bN.
T31 chain: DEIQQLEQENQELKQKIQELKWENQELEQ
Nature of the experiment: two-hybrid library CCNG1.

The next experiment concerns the target T32, 4H3129-bN.
T32 chain: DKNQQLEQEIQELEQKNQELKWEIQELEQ
Nature of the experiment: two-hybrid library CCNG1.

In the next experiment the target is T33, 4H3162-bN.
T33 chain: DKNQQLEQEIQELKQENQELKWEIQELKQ
Nature of the experiment: two-hybrid library CCNG1.

Another experiment addresses T34, 4H3172-bN.
T34 chain: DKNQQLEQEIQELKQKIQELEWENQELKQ
Nature of the experiment: two-hybrid library CCNG1.

For another experiment, the target named is T35, 4H3175-bN.
T35 chain: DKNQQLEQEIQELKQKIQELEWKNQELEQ
Nature of the experiment: two-hybrid library CCNG1.

The target of a further experiment is T36, 4H3277-bN.
T36 chain: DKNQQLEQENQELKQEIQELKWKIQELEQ
The experiment in a line: two-hybrid library CCNG1.

A further experiment concerns the target T37, 4H3298-bN.
T37 chain: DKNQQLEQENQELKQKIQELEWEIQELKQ
The experiment in a line: two-hybrid library CCNG1.

The next experiment deals with T38, 4H3414-bN.
T38 chain: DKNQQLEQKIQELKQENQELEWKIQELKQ
The experiment in a line: two-hybrid library CCNG1.

For another experiment, the target named is T39, 4H3462-bN.
T39 chain: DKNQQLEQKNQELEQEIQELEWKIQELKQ
The experiment in a line: two-hybrid library CCNG1.

For another experiment, the target named is T40, 4H3497-bN.
T40 chain: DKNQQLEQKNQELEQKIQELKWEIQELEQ
Nature of the experiment: two-hybrid library CCNG1.

A further experiment addresses T41, 4H3613-bN.
T41 chain: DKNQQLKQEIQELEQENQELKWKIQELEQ
The experiment in a line: two-hybrid library CCNG1.

A further experiment deals with T42, 4H3628-bN.
T42 chain: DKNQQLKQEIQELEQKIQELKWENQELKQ
Nature of the experiment: two-hybrid library CCNG1.

A further experiment deals with T43, 4H3631-bN.
T43 chain: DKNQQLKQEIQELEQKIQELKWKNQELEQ
Nature of the experiment: two-hybrid library CCNG1.

A further experiment has as its target T44, 4H3638-bN.
T44 chain: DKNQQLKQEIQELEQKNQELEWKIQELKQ
Nature of the experiment: two-hybrid library CCNG1.

The target in a further experiment is T45, 4H3817-bN.
T45 chain: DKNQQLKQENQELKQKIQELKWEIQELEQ
The experiment in a line: two-hybrid library CCNG1.

The target of the next experiment is T46, 4H3858-bN.
T46 chain: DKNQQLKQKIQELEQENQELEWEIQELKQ
The experiment in a line: two-hybrid library CCNG1.

The target of a further experiment is T47, 4H3926-bA.
T47 chain: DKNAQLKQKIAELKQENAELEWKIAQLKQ
The experiment in a line: two-hybrid library CCNG1.

The target of a further experiment is T48, 4H3926-bN.
T48 chain: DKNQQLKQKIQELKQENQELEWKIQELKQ
Nature of the experiment: two-hybrid library CCNG1.

The target of the next experiment is T49, 4H3974-bN.
T49 chain: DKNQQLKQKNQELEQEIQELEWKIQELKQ
The experiment in a line: two-hybrid library CCNG1.

Another experiment addresses T50, 4H570-bN.
T50 chain: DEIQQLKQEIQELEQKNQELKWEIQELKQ
Nature of the experiment: two-hybrid library CCNG1.

The next experiment concerns the target T51, 4H584-bN.
T51 chain: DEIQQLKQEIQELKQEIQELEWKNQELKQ
The experiment in a line: two-hybrid library CCNG1.

Another experiment deals with T52, 4H591-bN.
T52 chain: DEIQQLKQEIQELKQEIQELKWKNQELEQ
The experiment in a line: two-hybrid library CCNG1.

The target of a further experiment is T53, 4H619-bN.
T53 chain: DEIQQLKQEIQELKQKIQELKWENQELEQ
The experiment in a line: two-hybrid library CCNG1.

A further experiment deals with T54, 4H626-bN.
T54 chain: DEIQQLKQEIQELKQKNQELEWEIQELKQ
Nature of the experiment: two-hybrid library CCNG1.

A further experiment addresses T55, 4H850-bN.
T55 chain: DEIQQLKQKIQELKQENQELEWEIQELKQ
The experiment in a line: two-hybrid library CCNG1.

For another experiment, the target named is T56, 4H906-bN.
T56 chain: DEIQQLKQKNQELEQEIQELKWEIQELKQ
Nature of the experiment: two-hybrid library CCNG1.

The target of the next experiment is T57, P3bH1.
T57 chain: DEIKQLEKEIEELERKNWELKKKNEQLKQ
Nature of the experiment: two-hybrid library CCNG1.

From publication PMC10397247 come the findings set out here.

DEIQELEKEIEELERKNWELKKKNQELKQ [P3bHq]: the interaction score with P4bHq was 1.75; in the experiment with P5bHq it was 1.1; in the experiment with P6bHq, -0.227; with P7bHq, 0.482; with P8bHq, 0.414; with P9bHq, -0.595.

Turning to DKNAALEAKIAALEAEIAALEAEIAALKG [4H3330-AA], the interaction score with 4H3330-AA was 1.32; with 4H716-AA, -1.14; with 4H733-AA it was -1.48; in the experiment with 4H807-AA it was -1.35; in the experiment with APC1015-AA, -0.658; with APC1434-AA it was -1.62. The interaction score with APC2237-AA was -0.433; with APC232-AA, -1.1; with APC2405-AA, -1.07; with APC3645-AA, -1.25; with APC4011-AA, 2.04; with APC4264-AA, -1.37. Also, the interaction score in the experiment with APC4436-AA was -1.42; in the experiment with APC5383-AA, -1.16; in the experiment with APC6108-AA, 0.0413; with APC7099-AA it was -1.98; in the experiment with APC8191-AA, 1.43; in the experiment with APC8910-AA, -0.0896. Also, the interaction score is -1.65 with APC9096-AA and 0.302 with APC9319-AA.

As to DENQQLKQENQELEQKIQELKWKIQELKQ [4H1710-bN], the interaction score with 4H1710-bN was 0.191; with 4H1804-bN it was -0.254; in the experiment with 4H1899-bN, 0.0366; in the experiment with 4H1985-bN, 1.36; in the experiment with 4H235-bN, -2.91; in the experiment with 4H3129-bN it was -0.785. Further, the interaction score with 4H3162-bN was 0.233; with 4H3172-bN, -0.194; with 4H3175-bN, -0.28; with 4H3277-bN it was 0.0226; with 4H3298-bN, 0.498; with 4H3414-bN, -0.297. For the same molecule, the interaction score in the experiment with 4H3462-bN was -0.312; with 4H3497-bN, 0.701; with 4H3613-bN it was -0.41; with 4H3628-bN it was 1.45; with 4H3631-bN it was 0.993; with 4H3638-bN it was -0.0052. In addition, the interaction score with 4H3817-bN was 1.23; with 4H3858-bN, -0.718; with 4H3926-bA, -0.849; with 4H3926-bN, -0.569; with 4H3974-bN it was 0.85; with 4H570-bN, 0.578. The interaction score with 4H584-bN was 0.273; with 4H591-bN, -0.724; with 4H619-bN, 0.707; with 4H626-bN, 0.722; with 4H850-bN it was 0.177; in the experiment with 4H906-bN, 0.452. Besides, the interaction score with P3bH1 is -2.08.

Take DKIQELKKKIEELKRENWELEKENQELEQ [P4bHq]: the interaction score in the experiment with P4bHq is -0.613; in the experiment with P5bHq, -1.27; with P6bHq it was -0.00957; with P7bHq, -1.11; with P8bHq, -0.273; in the experiment with P9bHq it was -0.875.
